From article PMC4835703

Tests used:
MD2-GFP [1] = biological target: MD2-GFP (UniProt Q9Y6Y9); assay: MST; secreted MD2-GFP in the culture supernatant of transfected 293 cells grown in suspension; CnB titrated in 16 1:1 dilutions
[2] = biological target: CD14-GFP (full-length membrane-anchored CD14 from transfected HEK293 lysates) (UniProt P08571); assay: MST; GFP-tagged receptors in lysates of transfected HEK293 cells (RIPA buffer), diluted according to fluorescence intensity; CnB titrated in 16 1:1 dilutions; 25 °C
Chain of CD14-GFP (full-length membrane-anchored CD14 from transfected HEK293 lysates) (P08571 20-367): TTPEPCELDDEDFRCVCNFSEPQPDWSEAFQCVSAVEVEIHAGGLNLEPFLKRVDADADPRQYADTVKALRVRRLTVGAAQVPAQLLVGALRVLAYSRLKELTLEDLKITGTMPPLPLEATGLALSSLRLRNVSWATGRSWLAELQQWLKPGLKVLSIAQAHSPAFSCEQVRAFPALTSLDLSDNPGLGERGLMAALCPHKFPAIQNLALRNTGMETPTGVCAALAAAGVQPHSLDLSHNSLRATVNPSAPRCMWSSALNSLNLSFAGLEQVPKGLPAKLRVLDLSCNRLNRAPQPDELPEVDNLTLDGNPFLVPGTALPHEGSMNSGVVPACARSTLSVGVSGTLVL

MD2-GFP [3] = biological target: MD2-GFP (UniProt Q9Y6Y9); assay: as above
[4] = biological target: TLR4-GFP (full-length TLR4 from transfected HEK293 lysates) (UniProt O00206); assay: as above
Chain of TLR4-GFP (full-length TLR4 from transfected HEK293 lysates) (O00206 24-839): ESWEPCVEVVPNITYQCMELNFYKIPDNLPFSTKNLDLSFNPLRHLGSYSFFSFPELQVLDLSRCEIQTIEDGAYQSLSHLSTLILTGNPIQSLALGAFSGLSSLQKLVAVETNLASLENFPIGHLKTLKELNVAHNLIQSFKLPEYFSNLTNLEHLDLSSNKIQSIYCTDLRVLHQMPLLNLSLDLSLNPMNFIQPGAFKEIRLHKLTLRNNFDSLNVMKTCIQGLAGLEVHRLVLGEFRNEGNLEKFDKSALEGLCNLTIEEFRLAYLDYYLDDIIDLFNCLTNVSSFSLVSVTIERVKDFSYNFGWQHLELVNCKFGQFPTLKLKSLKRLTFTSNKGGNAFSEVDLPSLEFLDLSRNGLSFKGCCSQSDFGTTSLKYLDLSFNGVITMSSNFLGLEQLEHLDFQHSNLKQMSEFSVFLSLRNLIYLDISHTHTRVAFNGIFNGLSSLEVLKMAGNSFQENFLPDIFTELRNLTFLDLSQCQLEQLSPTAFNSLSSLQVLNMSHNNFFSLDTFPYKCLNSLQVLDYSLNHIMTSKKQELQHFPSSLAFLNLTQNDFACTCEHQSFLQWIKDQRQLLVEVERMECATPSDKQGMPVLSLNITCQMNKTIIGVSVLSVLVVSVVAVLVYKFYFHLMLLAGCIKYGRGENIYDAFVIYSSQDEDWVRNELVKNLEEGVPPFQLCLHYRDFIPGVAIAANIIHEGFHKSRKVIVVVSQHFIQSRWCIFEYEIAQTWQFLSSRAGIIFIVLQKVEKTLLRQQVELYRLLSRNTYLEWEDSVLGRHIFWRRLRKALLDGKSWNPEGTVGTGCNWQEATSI

Chain of recombinant calcineurin B (P63098 whole entry): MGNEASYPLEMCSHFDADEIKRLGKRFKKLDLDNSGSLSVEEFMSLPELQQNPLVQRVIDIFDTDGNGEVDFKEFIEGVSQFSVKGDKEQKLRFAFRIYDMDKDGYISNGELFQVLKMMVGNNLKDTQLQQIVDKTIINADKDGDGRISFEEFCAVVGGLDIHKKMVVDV
Chain of MD2-GFP (Q9Y6Y9 19-160): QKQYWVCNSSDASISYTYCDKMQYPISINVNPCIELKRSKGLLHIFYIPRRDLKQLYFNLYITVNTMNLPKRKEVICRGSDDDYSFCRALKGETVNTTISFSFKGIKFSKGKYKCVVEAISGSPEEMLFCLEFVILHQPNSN

Kd (MD2-GFP [1]): 74 µM
Kd [2]: 34.8 µM
Kd (MD2-GFP [3]): 7.43 µM
Kd [4]: 6.5 µM
Substance: recombinant calcineurin B (from UniProt P63098 1-170) (natural protein; other documents disagree on this pair)
